In patent US20260055141A1, “COMPOSITIONS AND METHODS FOR CONTROLLING FOOD INTAKE, ENERGY EXPENDITURE, AND BODY WEIGHT FOR THE TREATMENT OF OBESITY AND METABOLIC DISEASES” (The Trustees of the University of Pennsylvania, priority 2022, published 2026):
No end group written: not given here.

Experiments:
[1] = biological target: T1, human GPR75 (372-540 aa region), His-tagged (human, UniProt O95800 372-540); assay: SPR (Nicoya OpenSPR), His-tagged GPR75 on NTA sensor, one-to-one fit; curve at 4.9 µM
T1 construct: range 372-540; also called G-Protein Receptor 75; not shown: His tag
T1 sequence (O95800 372-540 limits assumed): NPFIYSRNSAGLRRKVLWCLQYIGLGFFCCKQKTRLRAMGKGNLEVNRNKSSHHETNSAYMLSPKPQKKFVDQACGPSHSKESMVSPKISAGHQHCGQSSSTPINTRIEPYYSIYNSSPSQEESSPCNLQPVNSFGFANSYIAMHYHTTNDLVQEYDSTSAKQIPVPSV

[2] = biological target: T1, human GPR75 (372-540 aa region), …; assay: SPR (Nicoya OpenSPR), His-tagged GPR75 on NTA sensor, one-to-one fit; curve at 12.3 µM
[3] = biological target: T1, human GPR75 (372-540 aa region), …; assay: SPR (Nicoya OpenSPR), His-tagged GPR75 on NTA sensor, one-to-one fit; curve at 4.93 µM
[4] = biological target: T1, human GPR75 (372-540 aa region), …; assay: SPR (Nicoya OpenSPR), His-tagged GPR75 on NTA sensor, one-to-one fit; curve at 49.3 µM
[5] = biological target: T1, human GPR75 (372-540 aa region), …; assay: SPR (Nicoya OpenSPR), His-tagged GPR75 on NTA sensor, one-to-one fit; curve at 92.4 µM
[6] = biological target: T1, human GPR75 (372-540 aa region), …; assay: SPR (Nicoya OpenSPR), His-tagged GPR75 on NTA sensor, one-to-one fit; curve at 24.65 µM
[7] = biological target: T1, human GPR75 (372-540 aa region), …; assay: SPR (Nicoya OpenSPR), His-tagged GPR75 on NTA sensor, one-to-one fit; curve at 123.23 µM
[8] = biological target: T1, human GPR75 (372-540 aa region), …; assay: SPR (Nicoya OpenSPR), His-tagged GPR75 on NTA sensor, one-to-one fit; second curve at 12.3 µM
[9] = biological target: T1, human GPR75 (372-540 aa region), …; assay: SPR (Nicoya OpenSPR), His-tagged GPR75 on NTA sensor, one-to-one fit; second curve at 49.3 µM

Measured: koff

B1: SU75-37 (peptide)
peptide: TFTSDLSKYLEEEVREFIWLKNGGPSDVNTDRPGLLDLK-NH2
notes: Synthetic, non-naturally occurring peptide; also called Drug37; SUODN37
0.0141 s⁻¹: all assays above
